Reference: publication PMC6566460

Target: recombinant histone H2B (UniProt P06899)
Test: SEC + other: RP-HPLC; synthetic H2A.Z and recombinant H2B unfolded together (7 M Gdn·HCl, 20 mM mercaptoethanol, 20 mM Tris·HCl, pH 7.5; 2 h on ice), dialysed three times against refolding buffer (2.0 M NaCl, 2.0 mM mercaptoethanol, 10 mM Tris·HCl, pH 7.5) at 4 °C for 3 h; SEC of the reconstituted mixture, then RP-HPLC at 280 nm; ratio from peak areas and the number of tyrosines

stoichiometry N: 1
Substance: synthetic histone H2A.Z (from UniProt P0C0S5 1-128) (natural protein)
